# Experimental data: patent publication US20220332804A1 (CSL INNOVATION, published 2022)
# Changes are numbered by the printed parent chain.
# T1: human C2 L706A (human, UniProt P06681 21-752)
# T1 sequence: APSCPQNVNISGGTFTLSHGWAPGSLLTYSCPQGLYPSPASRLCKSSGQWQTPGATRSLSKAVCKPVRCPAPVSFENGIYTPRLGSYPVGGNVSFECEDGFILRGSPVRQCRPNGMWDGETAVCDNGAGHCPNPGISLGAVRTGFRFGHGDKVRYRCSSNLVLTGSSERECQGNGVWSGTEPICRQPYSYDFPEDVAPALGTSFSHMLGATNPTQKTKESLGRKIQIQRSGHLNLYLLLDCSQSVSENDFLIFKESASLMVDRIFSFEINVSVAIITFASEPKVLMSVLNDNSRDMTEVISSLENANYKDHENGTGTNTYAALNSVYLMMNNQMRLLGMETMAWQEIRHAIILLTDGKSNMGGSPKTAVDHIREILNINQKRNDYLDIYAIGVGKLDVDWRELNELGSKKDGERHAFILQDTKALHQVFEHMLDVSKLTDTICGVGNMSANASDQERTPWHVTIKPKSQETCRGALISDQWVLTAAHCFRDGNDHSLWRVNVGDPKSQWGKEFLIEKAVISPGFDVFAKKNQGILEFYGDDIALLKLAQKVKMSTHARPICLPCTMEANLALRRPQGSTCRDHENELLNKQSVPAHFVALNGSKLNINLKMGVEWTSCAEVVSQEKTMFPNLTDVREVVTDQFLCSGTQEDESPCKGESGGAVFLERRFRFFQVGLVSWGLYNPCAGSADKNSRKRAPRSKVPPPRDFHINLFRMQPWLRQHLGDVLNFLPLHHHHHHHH
# T2: human C2 S708A (human, UniProt P06681 21-752)
# T2 sequence: T1 sequence with A686L, S688A
# T3: human C2 N268A (human, UniProt P06681 21-752)
# T3 sequence: T1 sequence with N248A, A686L
# T4: human C2 G427A (human, UniProt P06681 21-752)
# T4 sequence: T1 sequence with G407A, A686L
# B1: RF16-226 (antibody, human IgG4 S228P, lambda)
# heavy: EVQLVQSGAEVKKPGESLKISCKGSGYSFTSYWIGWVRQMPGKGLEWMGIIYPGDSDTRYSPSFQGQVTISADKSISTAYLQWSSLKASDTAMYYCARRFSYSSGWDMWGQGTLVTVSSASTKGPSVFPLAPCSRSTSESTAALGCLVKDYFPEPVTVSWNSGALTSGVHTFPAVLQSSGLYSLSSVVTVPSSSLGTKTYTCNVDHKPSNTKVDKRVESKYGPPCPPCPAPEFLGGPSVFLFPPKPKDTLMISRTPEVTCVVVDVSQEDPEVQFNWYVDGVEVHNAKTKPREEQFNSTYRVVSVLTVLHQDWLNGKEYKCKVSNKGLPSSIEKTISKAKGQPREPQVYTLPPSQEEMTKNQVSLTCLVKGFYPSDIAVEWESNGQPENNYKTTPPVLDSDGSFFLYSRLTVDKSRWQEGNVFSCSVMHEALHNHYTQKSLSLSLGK
# light: SYELTQPPSVSVSPGQTARITCSGDALTSKYVAWYQQKSGLAPLLVIYEDTRRPSGIPAKFSGSSSGSVATLTISGAHGDDEADYYCYSTDASGHQRVFGGGTKLTVLSQPKAAPSVTLFPPSSEELQANKATLVCLISDFYPGAVTVAWKADGSPVKAGVETTKPSKQSNNKYAASSYLSLTPEQWKSHRSYSCQVTHEGSTVEKTVAPTECS
# notes: pH-dependent anti-C2 antibody from a phage display library; also called WT
# Columns and labels:
# Test in all cases: SPR, antibody captured, C2 as analyte;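 note: biacore SPR at 37 °C, anti-C2 mAbs captured via goat anti-human IgG on CM5 chips, double-referenced sensorgrams fit to a 1:1 kinetic or steady-state model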
# human C2 L706A = molecular target: T1, human C2 L706A
# human C2 S708A = molecular target: T2, human C2 S708A
# human C2 N268A = molecular target: T3, human C2 N268A
# human C2 G427A = molecular target: T4, human C2 G427A
binder,measurement,setting,value
B1,Kd,human C2 L706A,229 nM
same,Kd,human C2 S708A,21.1 nM
same,Kd,human C2 N268A,11.8 nM
same,Kd,human C2 G427A,4.2 nM
